Legend:
[1] = molecular target: T1, human monomeric (native or non-aggregate) tau (human, UniProt P10636 2-758); test: SPR (Biacore 2000, 25 C), antibody captured on protein A, tau as analyte, steady state fit
T1 construct: No tag or expression host is stated; also called Monomeric Tau; monomeric tau
Description: (§1) Surface Plasmon Resonance (SPR) assay, measured with a BIACORE® 2000 instrument (primed with HBS-EP+running buffer (GE Healthcare, 10 mM Hepes pH7.4+150 mM NaCl+3 mM EDTA+0.05% surfactant P20) at 25° C.), is used to measure binding of an exemplified anti-Tau antibody (having both HCs of SEQ ID NO.2 and both LCs of SEQ ID NO.1) to both human monomeric (e.g., native or non-aggregate) tau and human tau aggregates (both having the amino acid sequence as set forth in SEQ ID NO.13).
(§2) Except as noted, all reagents and materials are from BIACORE® AB (Upsala, Sweden). A CMS chip containing immobilized protein A (generated using standard NHS-EDC amine coupling) on all four flow cells (FC) is used to employ a capture methodology. Antibody samples are prepared at 0.5 μg/mL by dilution into running buffer. […]
(§3) Data of binding to tau aggregate is processed using standard double-referencing and fit to a 1:1 binding model using Biacore 2000 Evaluation software, version 4.1, to determine the association rate (kₒₙ, M⁻¹s⁻¹ units), dissociation rate (koff, s⁻¹ units), and Rₘₐₓ (RU units). The equilibrium dissociation constant (KD) was calculated from the relationship KD=koff/kₒₙ, and is in molar units. Data of binding to monomeric tau cannot be determined accurately by SPR as described above due to rapid on- and off-rates. […]

[2] = molecular target: T2, aggregate tau fibrils purified from AD brain homogenates (MC1-affinity purified) (human, UniProt P10636-8 2-441, limits assumed); test: ELISA, purified AD tau fibrils coated on plate, anti-human IgG-HRP detection
T2 construct: Brain-derived material coated on ELISA plates at 0.7 ug/ml total tau; also called Purified AD Tau Fibrils; purified tau fibrils
Description: Enzyme-Linked Immunosorbant Assay (ELISA) is used to determine relative binding affinity of the exemplified anti-Tau antibody (having both HCs of SEQ ID NO.2 and both LCs of SEQ ID NO.1) to aggregate tau fibrils from AD brain homogenates. AD brain homogenates are prepared from approx. 80 g of cortex from brain of AD patients. Briefly, buffer (TBS/1 mM PMSF/1× Complete® protease inhibitor cocktail (Roche, p/n. 11 697 498 001) and phosphatase inhibitor (ThermoFischer, p/n. 78428)) is added to the AD brain tissue at about 10 ml/1 g (tissue). Tissue is homogenized using a handheld Kinematica Polytron at speed 6-7. Tissue is then further homogenized using Parr Bomb (Parr Instrument, p/n. 4653) at 1500 psi of nitrogen for 30 mins. Homogenate is spun at 28,000 g (J14 Beckman rotor) for 30 min at 4° C. Supernatant is collected, pooled and run over a 4 cm high guard column of Sepharose 400 Superflow to remove larger debris, then run over 25 ml MC1-Affigel 10 column at a flow rate of 50-60 ml per hour, in order to purify MC1-binding tau fibrils. To maximize the recovery of purification, supernatants are recycled through MC-1 column over 18-20 hours at 4° C. […] The concentration of tau within the tau fibrils purified from AD brain homogenate is measured by sandwich ELISA using DA-9 capture antibody and CP27 detection antibody. […]

[3] = molecular target: T3, human tau aggregates (amino acid sequence of SEQ ID NO.13) (human, UniProt P10636 2-758); test: SPR (Biacore 2000, 25 C), antibody captured on protein A, tau aggregate as analyte, 1:1 fit
T3 construct: also called fibril tau; tau fibril aggregate
Description: as §1, §2, §3

[4] = molecular target: T3, human tau aggregates (amino acid …); test: SPR (Biacore 2000, 25 C), antibody captured on protein A, tau aggregate as analyte, KD=koff/kon, not normalized for avidity
Description: as §1, §2, §3

T3 sequence (P10636 other isoform, or with tags, fused parts or gaps limits assumed): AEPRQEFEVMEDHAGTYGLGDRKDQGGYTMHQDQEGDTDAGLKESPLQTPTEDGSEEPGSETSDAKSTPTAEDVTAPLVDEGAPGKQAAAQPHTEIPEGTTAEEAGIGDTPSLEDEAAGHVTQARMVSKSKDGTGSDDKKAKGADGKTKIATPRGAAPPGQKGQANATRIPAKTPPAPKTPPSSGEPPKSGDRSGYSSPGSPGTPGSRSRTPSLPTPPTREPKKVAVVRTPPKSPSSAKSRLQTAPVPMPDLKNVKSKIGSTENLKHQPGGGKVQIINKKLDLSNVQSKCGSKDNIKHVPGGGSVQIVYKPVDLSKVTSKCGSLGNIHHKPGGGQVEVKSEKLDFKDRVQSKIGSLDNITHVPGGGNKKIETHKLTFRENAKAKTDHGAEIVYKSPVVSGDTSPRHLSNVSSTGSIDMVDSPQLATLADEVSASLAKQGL
T2 sequence (P10636 other isoform, or with tags, fused parts or gaps limits assumed): as above
T1 sequence (P10636 other isoform, or with tags, fused parts or gaps limits assumed): as above

B1: Exemplified anti-Tau antibody (having both HCs of SEQ ID NO.2 and both LCs of SEQ ID NO.1) (antibody, human IgG4 S228P, kappa, F234A L235A, V domains shown)
VH: EVQLVQSGAEVKKPGESLKISCKGSGYTFSNYWIEWVRQMPGKGLEWMGEILPGSDSIKYEKNFKGQVTISADKSISTAYLQWSSLKASDTAMYYCARRGNYVDDWGQGTLVTVSS
VL: EIVLTQSPGTLSLSPGERATLSCRSSQSLVHSNQNTYLHWYQQKPGQAPRLLIYKVDNRFSGIPDRFSGSGSGTDFTLTISRLEPEDFAVYYCSQSTLVPLTFGGGTKVEIKR
notes: It was expressed in CHO cells; also called Exemplified anti-Tau mAb; exemplified tau monoclonal antibody
- Kd [1]: 235000 pM
- EC50 [2]: 6.8 pM
- koff [3]: < 1e-05 s⁻¹
- kon [3]: 45900 M⁻¹ s⁻¹
- Kd [4]: < 220 pM
